Series [1] concerns the target T1, EnuR (Ruegeria pomeroyi, UniProt Q5LUA6).
T1 construct: gene gntR; full-length EnuR with C-terminal Strep-tag-II, PLP-containing
T1 sequence (Q5LUA6 1-464): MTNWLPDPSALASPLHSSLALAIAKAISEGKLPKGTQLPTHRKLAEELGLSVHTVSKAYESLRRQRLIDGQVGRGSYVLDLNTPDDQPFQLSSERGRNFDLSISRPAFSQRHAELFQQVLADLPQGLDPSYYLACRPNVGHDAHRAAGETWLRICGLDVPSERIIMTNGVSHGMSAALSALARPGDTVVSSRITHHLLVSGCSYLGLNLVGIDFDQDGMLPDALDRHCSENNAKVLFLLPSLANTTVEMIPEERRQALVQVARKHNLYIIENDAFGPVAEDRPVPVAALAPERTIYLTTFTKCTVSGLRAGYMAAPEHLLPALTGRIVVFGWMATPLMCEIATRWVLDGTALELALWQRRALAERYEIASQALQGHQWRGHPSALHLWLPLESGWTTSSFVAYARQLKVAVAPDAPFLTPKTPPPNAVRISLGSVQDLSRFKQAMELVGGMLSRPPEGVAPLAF
As to the kind of experiment: microscale thermophoresis. It counts as binding. (In general: Microscale thermophoresis detects binding through changes in fluorescence in a small temperature gradient.)

In series [2] the target is T2, EnuR (Ruegeria pomeroyi, UniProt Q5LUA6).
T2 construct: gene gntR; full-length EnuR with C-terminal Strep-tag-II, PLP-containing
As to the kind of experiment: microscale thermophoresis. It counts as binding. The source holds these as a separate data set.

Series [3] deals with C-terminal aminotransferase domain (ATD) of wild-type EnuR from Ruegeria pomeroyi DSS-3, Strep-tag II fusion (Ruegeria pomeroyi DSS-3). As to the kind of experiment: SEC; HiLoad 16/600 Superdex 200 pg column; masses estimated against marker proteins (thyroglobulin, alcohol dehydrogenase, bovine albumin, carbonic anhydrase); quaternary assembly of the Strep-Tactin purified proteins.

Series [4] addresses C-terminal aminotransferase domain of the EnuR* (Lys302His) mutant from Ruegeria pomeroyi DSS-3, Strep-tag II fusion (Ruegeria pomeroyi DSS-3). The description is as above.
The target in series [5] is Ectoine nutrient utilization regulator (EnuR) from Ruegeria pomeroyi DSS-3, full-length wild type, EnuR-Strep-tag II (Ruegeria pomeroyi DSS-3). Described as above.
Series [6] has as its target EnuR* (Lys302His) mutant of full-length EnuR from Ruegeria pomeroyi DSS-3, EnuR*-Strep-tag II (Ruegeria pomeroyi DSS-3). The series is described as above.
The subject of series [7] is EnuR (C-terminal Strep-tag II fusion, PLP-bound) (Ruegeria pomeroyi DSS-3). As to the kind of experiment: MST. To be noted: PLP-containing EnuR, 200 nM; MST: 10 mM Tris-HCl pH 7.5, 150 mM NaCl, 0.07% Tween20, 21 C; 200 nM NT-647-labeled EnuR titrated with DNA.

Read-outs that look alike come from different tables or passages of the source.

The Kd is the free concentration of one partner at which half of the binding sites on the other are occupied at equilibrium, for simple one-to-one binding. `CC(=O)N[C@H](C(=O)O)[C@@H](O)CN` [hydroxy-α-ADABA] yielded a Kd on EnuR [1] of 430 ± 200 nM.

`CC(=O)N[C@@H](CCN)C(=O)O` [α-ADABA] came in with a Kd on EnuR [2] of 2550 ± 500 nM.

Broadly, the stoichiometry N is the number of molecules, sites or subunits per partner or assembly. “C-terminal aminotransferase domain (ATD) of wild-type EnuR from Ruegeria pomeroyi DSS-3, Strep-tag II fusion (domain or fragment)”: the stoichiometry N in series [3] is 2.

Take “C-terminal aminotransferase domain of the EnuR* (Lys302His) mutant from Ruegeria pomeroyi DSS-3, Strep-tag II fusion (domain or fragment)”: the stoichiometry N in series [4] was 2.

Regarding “Ectoine nutrient utilization regulator (EnuR) from Ruegeria pomeroyi DSS-3, full-length wild type, EnuR-Strep-tag II (natural protein)”, in series [5], the stoichiometry N is 2.

In the case of “EnuR* (Lys302His) mutant of full-length EnuR from Ruegeria pomeroyi DSS-3, EnuR*-Strep-tag II (natural protein)”, the stoichiometry N in series [6] was 2.

“TAACATTGTCGCGCGACAATAAAAAAATTGACATGCAGTACAATTCCC (double strand) [MST BS WT 48 bp promoter/operator fragment]” yielded a Kd in series [7] of 1900 nM.

The values are drawn from PMC8739950, “The MocR/GabR Ectoine and Hydroxyectoine Catabolism Regulator EnuR: Inducer and DNA Binding” (Frontiers in Microbiology, 2021).
